Laboratory results reported in patent US20160271244A1.
Values joined by “and” are separate entries in the source; they are usually repeats but may differ in a detail not shown here. Identical values can stand only once.

In the case of 4E10 (antibody), the Kd (JRFL APA DEG) is reported as 140 nM and 150 nM and 180 nM, the koff (JRFL APA DEG) is reported as 0.001 s⁻¹ and the kon (JRFL APA DEG) is reported as 6800 M⁻¹ s⁻¹ and 6600 M⁻¹ s⁻¹ and 5500 M⁻¹ s⁻¹. For the same substance, the Kd (JRFL APA) was 1380 nM, the koff (JRFL APA) was 0.001 s⁻¹ and the kon (JRFL APA) was 720 M⁻¹ s⁻¹.
